The values below come from paper PMC10889886.

The target in this assay is HCoV-OC43 Spike antigen (HCoV-OC43) (UniProt P36334). As to the kind of experiment: SEC-MALS. In general terms: Size exclusion chromatography separates by hydrodynamic size, large species first.

As a reminder, the stoichiometry N is a count of units in the complex or per binding partner.

“HCoV-OC43 Spike antigen (from UniProt P36334 14-1353) (natural protein)” had a stoichiometry N of 3.
